From article PMC10869471, “Pectin methylesterase 31 is transcriptionally repressed by ABI5 to negatively regulate ABA-mediated inhibition of seed germination”
Where a chain is given by its changes, count along the chain named.

What was measured:
[1] = molecular target: T1, His-ABI5 (UniProt Q9SJN0 1-442); experiment: EMSA; suppressed by 50x and 100x unlabeled probe; Chemiluminescent EMSA Kit (Beyotime); binding buffer, salt, pH and temperature not stated (protein eluted in 100 mM HEPES, 500 mM imidazole, pH 7.5); conditions: protein: recombinant; tags: His (pET-30a); label: biotin; blunt
T1 sequence: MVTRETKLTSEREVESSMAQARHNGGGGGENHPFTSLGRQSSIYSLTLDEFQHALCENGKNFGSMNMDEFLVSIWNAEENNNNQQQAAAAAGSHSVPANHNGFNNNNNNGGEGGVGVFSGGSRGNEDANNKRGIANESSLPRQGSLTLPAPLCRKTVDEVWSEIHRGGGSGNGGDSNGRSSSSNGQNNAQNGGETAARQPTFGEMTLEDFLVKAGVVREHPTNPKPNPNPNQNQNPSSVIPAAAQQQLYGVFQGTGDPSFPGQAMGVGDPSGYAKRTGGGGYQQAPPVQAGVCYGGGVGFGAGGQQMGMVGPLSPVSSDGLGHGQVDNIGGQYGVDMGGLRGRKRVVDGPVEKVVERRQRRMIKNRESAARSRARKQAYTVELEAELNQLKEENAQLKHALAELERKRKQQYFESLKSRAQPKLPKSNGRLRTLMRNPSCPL

[2] = molecular target: T1, His-ABI5; experiment: competition; 100x unlabeled mutated competitor against labeled N1; Chemiluminescent EMSA Kit (Beyotime); binding buffer, salt, pH and temperature not stated (protein eluted in 100 mM HEPES, 500 mM imidazole, pH 7.5); conditions: protein: recombinant; tags: His (pET-30a); blunt

B1: proPME31 probe (50 bp) (dsDNA)
DNA 1: TTGAACAAAGAACTGTTACACGTAGAACCAAACAATATGATGAAAAGTAT
DNA 2: ATACTTTTCATCATATTGTTTGGTTCTACGTGTAACAGTTCTTTGTTCAA
binding result [1]: binds

B2: proPME31 mutated probe (mComp) (dsDNA)
DNA 1: B1 DNA 1 with C19A, C21A, G22A, T23A
DNA 2: B1 DNA 2 with A28T, C29T, G30T, G32T
binding result [2]: no binding
